According to PMC13388985 (Nature Communications, 2026):
No end group written: not given here.

T1: GST-tagged wild-type Af1521 macrodomain (UniProt O28751 1-192)
T1 sequence: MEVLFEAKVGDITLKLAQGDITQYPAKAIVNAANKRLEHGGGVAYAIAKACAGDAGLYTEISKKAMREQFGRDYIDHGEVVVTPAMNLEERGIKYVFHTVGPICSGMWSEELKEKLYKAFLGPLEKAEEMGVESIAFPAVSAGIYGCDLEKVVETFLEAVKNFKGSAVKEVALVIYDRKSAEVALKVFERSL

T2: GST-tagged Af1521-K35E/Y145R macrodomain (UniProt O28751 1-192, K35E | Y145R)
T2 sequence: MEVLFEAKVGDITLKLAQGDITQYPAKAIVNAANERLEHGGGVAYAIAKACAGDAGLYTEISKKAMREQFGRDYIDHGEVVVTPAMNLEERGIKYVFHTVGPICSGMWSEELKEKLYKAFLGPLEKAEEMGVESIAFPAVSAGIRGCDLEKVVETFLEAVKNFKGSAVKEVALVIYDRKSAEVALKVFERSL


Tests used:
[1] = target: T1, GST-tagged wild-type Af1521 macrodomain; experiment: pull-down
[2] = target: T2, GST-tagged Af1521-K35E/Y145R macrodomain; experiment: pull-down

Row | binding result [1] | binding result [2] | Binder
1 | binds | binds | GWTAR(ADP‑ribose)KSAEAGTAGK-NH2 [Synthetic peptide GWTARKSAEAGTAGK-amide with ADPr on Arg-5]
2 | binds | binds | GWTARKS(ADP‑ribose)AAAGTAGK-NH2 [Synthetic peptide GWTARKSAAAGTAGK-amide with ADPr on Ser-7]
